Measurements as given in the supplement of paper PMC11908140.

B1: library; numbered along this chain (parent)
chain: MRKPRAAVGSGHRKQAASQEGRQKHAKNNSQAKPSACDGLARQPEEVVLQASVSSYHLFRDVAEVTAFRGSLLSWYDQEKRDLPWRRRAEDEMDLDRRAYAVWVSEVMLQQTQVATVINYYTGWMQKWPTLQDLASASLEEVNQLWAGLGYYSRGRRLQEGARKVVEELGGHMPRTAETLQQLLPGVGRYTAGAIASIAFGQATGVVDGNVARVLCRVRAIGADPSSTLVSQQLWGLAQQLVDPARPGDFNQAAMELGATVCTPQRPLCSQCPVESLCRARQRVEQEQLLASGSLSGSPDVEECAPNTGQCHLCLPPSEPWDQTLGVVNFPRKASRKPPREESSATCVLEQPGALGAQILLVQRPNSGLLAGLWEFPSVTWEPSEQLQRKALLQELQRWAGPLPATHLRHLGEVVHTFSHIKLTYQVYGLALEGQTPVTTVPPGARWLTQEEFHTAAVSTAMKKVFRVYQGQQPGTCMGSKRSQVSSPCSRKKPRMGQQVLDNFFRSHISTDAHSLNSAAQ

Variants of: B1
Assay: 8OG:A repair function score (normalized; synonymous = 0, nonsense = -1) (normalized log-likelihood score); higher = more repair activity (WT-like)
Conditions: with 8OG:A DNA repair reporter (GFP) in HEK-293 MUTYH KO cells
Summary of the method: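 Per-tile Rosace fitness scores were converted to a normalized repair function score anchored on synonymous and nonsense distributions. That scale puts synonymous medians at 0 and nonsense medians at -1. Variants with starting counts under 300 counts per million were discarded. Input came from sorting viable mCherry+ MUTYH knockout HEK-293 cells, carrying lentiviral MUTYH cDNA NNN codon-scan libraries in 10 pg/ml doxycycline and an 8OG:A GFP repair reporter, into GFP+ and GFP− bins at 72 h, three replicates per tile, followed by tile amplicon sequencing.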
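Also: cells sorted at 72 h after reporter transfection.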

Compared with A354L, W103T is lower in “8OG:A repair function score” value: -0.0264 for the first, -0.833 for the second.

Compared with A520G, G209K is lower in “8OG:A repair function score” value: 0.00375 for the first, -0.788 for the second.

Going from S270P to T406R, the “8OG:A repair function score” value rises from -0.0287 to 0.0241.

Compared with T406K, L289R is lower in “8OG:A repair function score” value: 0.103 for the first, -0.0177 for the second.

Compared with S483I, R154L is lower in “8OG:A repair function score” value: -0.00113 for the first, -1.06 for the second.

First: A371M
Second: H172V
The “8OG:A repair function score” value of the first is lower: -0.439 for the first, 0.0577 for the second.

Going from H172F to G372W, the “8OG:A repair function score” value falls from -0.0443 to -0.135.

First: G186N
Second: D300K
The “8OG:A repair function score” value of the first is lower: -0.814 for the first, -0.325 for the second.

First: V468Y
Second: V468F
The “8OG:A repair function score” value of the first is lower: -0.025 for the first, -0.0236 for the second.

Compared with V104D, V104C is higher in “8OG:A repair function score” value: -1.33 for the first, -0.133 for the second.

First: S378C
Second: R219F
The “8OG:A repair function score” value of the first is higher: 0.0237 for the first, -0.485 for the second.

Compared with L237N, V441C is higher in “8OG:A repair function score” value: -0.583 for the first, -0.261 for the second.

Going from Q50F to Q43L, the “8OG:A repair function score” value rises from -0.0563 to 0.0948.

First: V379A
Second: V379K
The “8OG:A repair function score” value of the first is higher: 0.00194 for the first, -0.667 for the second.

First: V261M
Second: Q265G
The “8OG:A repair function score” value of the first is lower: -0.124 for the first, -0.0557 for the second.

First: S138E
Second: S138P
The “8OG:A repair function score” value of the first is higher: -0.00767 for the first, -0.0208 for the second.

Compared with S138L, T308A is higher in “8OG:A repair function score” value: -0.279 for the first, 0.0246 for the second.

Going from V166P to G150T, the “8OG:A repair function score” value falls from -0.858 to -1.35.

Compared with F453Q, V465A is higher in “8OG:A repair function score” value: -0.887 for the first, -0.0879 for the second.

Compared with W85G, V301G is higher in “8OG:A repair function score” value: -2.15 for the first, -0.279 for the second.

Going from A212T to G297R, the “8OG:A repair function score” value falls from -0.0386 to -0.0667.

Going from A280S to R389T, the “8OG:A repair function score” value rises from -0.172 to 0.1.

Compared with C304N, C304F is higher in “8OG:A repair function score” value: -0.439 for the first, -0.29 for the second.

Compared with F376Y, W381Y is higher in “8OG:A repair function score” value: -0.715 for the first, -0.0016 for the second.

First: V142M
Second: V142S
The “8OG:A repair function score” value of the first is lower: -0.673 for the first, -0.632 for the second.

Compared with Q470D, M93E is higher in “8OG:A repair function score” value: -0.0832 for the first, 0.0066 for the second.

Compared with R189P, M478A is lower in “8OG:A repair function score” value: 0.136 for the first, -0.0431 for the second.

Compared with A457Q, P494H is higher in “8OG:A repair function score” value: -0.402 for the first, 0.015 for the second.

Going from R491N to R491Y, the “8OG:A repair function score” value falls from -0.0106 to -0.0848.

First: R491H
Second: L408T
The “8OG:A repair function score” value of the first is higher: 0.0282 for the first, -0.417 for the second.

First: T176F
Second: V274P
The “8OG:A repair function score” value of the first is higher: -0.157 for the first, -1.23 for the second.

First: C477W
Second: E64D
The “8OG:A repair function score” value of the first is higher: 0.00839 for the first, -0.0139 for the second.

Going from S486T to Q323R, the “8OG:A repair function score” value falls from 0.0101 to -0.099.

Going from Q323S to V438N, the “8OG:A repair function score” value rises from -0.0829 to 0.103.

Compared with L370I, R217T is lower in “8OG:A repair function score” value: -0.377 for the first, -1.02 for the second.

Compared with L72V, L169A is higher in “8OG:A repair function score” value: -0.446 for the first, -0.177 for the second.

Going from E167I to E167N, the “8OG:A repair function score” value rises from -0.0169 to 0.0307.

Compared with A357S, E90W is lower in “8OG:A repair function score” value: 0.0171 for the first, -0.0857 for the second.

Going from T511L to E451Y, the “8OG:A repair function score” value rises from -0.0126 to 0.131.

Going from V427Y to D208C, the “8OG:A repair function score” value rises from -1.2 to -1.02.

First: S490Q
Second: E433R
The “8OG:A repair function score” value of the first is lower: 0.0011 for the first, 0.0685 for the second.

Compared with S384P, L83S is lower in “8OG:A repair function score” value: -0.218 for the first, -0.387 for the second.

First: L83N
Second: R506E
The “8OG:A repair function score” value of the first is lower: -0.585 for the first, 0.0109 for the second.

Going from I118N to D61Y, the “8OG:A repair function score” value falls from -0.0549 to -0.0853.

Going from L139P to N143H, the “8OG:A repair function score” value falls from 0.0573 to -0.621.

Going from Q202S to S54L, the “8OG:A repair function score” value rises from -0.0817 to 0.00619.

Going from E106C to A135H, the “8OG:A repair function score” value rises from -1.19 to -0.353.

Compared with K464H, P247H is lower in “8OG:A repair function score” value: -0.313 for the first, -0.982 for the second.

First: A147P
Second: V218Q
The “8OG:A repair function score” value of the first is lower: -0.734 for the first, -0.472 for the second.

First: G401I
Second: P339F
The “8OG:A repair function score” value of the first is higher: -0.184 for the first, -0.187 for the second.

Compared with L158Y, V284L is higher in “8OG:A repair function score” value: -1.09 for the first, -0.0493 for the second.

First: L131D
Second: R398H
The “8OG:A repair function score” value of the first is lower: -1.1 for the first, 0.0204 for the second.

Going from R98Y to L411V, the “8OG:A repair function score” value rises from -0.0815 to 0.0699.

Going from A115C to P44Q, the “8OG:A repair function score” value falls from -0.0964 to -0.113.

Going from V107L to V107G, the “8OG:A repair function score” value rises from -0.266 to -0.0408.

First: I509C
Second: R495T
The “8OG:A repair function score” value of the first is lower: -0.00892 for the first, 0.0177 for the second.

Compared with A334R, C347N is lower in “8OG:A repair function score” value: 0.0363 for the first, -1.21 for the second.

First: C347D
Second: C347T
The “8OG:A repair function score” value of the first is lower: -1.26 for the first, -0.206 for the second.

Compared with P244R, P244C is lower in “8OG:A repair function score” value: -0.145 for the first, -0.39 for the second.

First: C314A
Second: S55H
The “8OG:A repair function score” value of the first is lower: -0.468 for the first, -0.00673 for the second.

Going from E92P to E92Y, the “8OG:A repair function score” value falls from -0.0511 to -0.0538.

Going from S227R to S227N, the “8OG:A repair function score” value rises from -0.103 to 0.126.

Going from P185C to R283S, the “8OG:A repair function score” value rises from -0.242 to -0.203.

Going from R266P to R266L, the “8OG:A repair function score” value rises from -0.449 to -0.152.

Compared with V327I, A89L is higher in “8OG:A repair function score” value: -0.257 for the first, 0.00692 for the second.

First: R60I
Second: S487M
The “8OG:A repair function score” value of the first is lower: -0.0738 for the first, 0.0121 for the second.

Going from K492R to T346N, the “8OG:A repair function score” value falls from -0.0207 to -0.262.

First: T346P
Second: R87E
The “8OG:A repair function score” value of the first is lower: -0.585 for the first, -0.0603 for the second.

Compared with D502N, S459G is lower in “8OG:A repair function score” value: 0.011 for the first, -0.212 for the second.

Compared with P316I, L277C is higher in “8OG:A repair function score” value: -0.253 for the first, -0.0293 for the second.

First: A192T
Second: A192G
The “8OG:A repair function score” value of the first is lower: -1.07 for the first, -0.105 for the second.

Going from Q271F to S105N, the “8OG:A repair function score” value falls from -0.0282 to -0.802.

Going from T66E to T66L, the “8OG:A repair function score” value falls from 0.00467 to -0.00253.

First: M496S
Second: L423Q
The “8OG:A repair function score” value of the first is lower: -0.0675 for the first, 0.416 for the second.

Going from R97E to T204G, the “8OG:A repair function score” value falls from 0.00633 to -0.452.

Compared with P34C, Q111F is lower in “8OG:A repair function score” value: 0.0156 for the first, -1.08 for the second.

Compared with Q435L, S197E is lower in “8OG:A repair function score” value: 0.0233 for the first, -0.903 for the second.

First: T324S
Second: A203Y
The “8OG:A repair function score” value of the first is higher: 0.0429 for the first, -0.245 for the second.

Compared with L360F, L180E is lower in “8OG:A repair function score” value: -0.195 for the first, -0.764 for the second.

Going from G193V to P320I, the “8OG:A repair function score” value rises from -0.346 to -0.0716.

Going from Q232I to S294E, the “8OG:A repair function score” value rises from -0.459 to 0.00208.

First: S294N
Second: T455C
The “8OG:A repair function score” value of the first is lower: 0.0126 for the first, 0.318 for the second.

Compared with W447D, D243V is higher in “8OG:A repair function score” value: -1.18 for the first, -0.767 for the second.

For V328R, the “8OG:A repair function score” value was 0.0191.
